{"source": "paper PMC1964878", "key": {"[1]": {"test_system": "O=C(O)[C@H]1C[C@@H](O)CN1", "assay": "purified protein", "conditions": "Tris 20 mM/EDTA 1 mM, pH 8-9 (optimum buffer), 37 C, 10-160 mM substrate"}, "[2]": {"test_system": "O=C(O)[C@@H]1C[C@@H](O)CN1", "assay": "purified protein", "conditions": "Tris 20 mM/EDTA 1 mM, pH 8-9 (optimum buffer), 37 C, 10-160 mM substrate"}}}
{"substance": "PaHyPRE (Pseudomonas aeruginosa PAO1)", "values": [{"measurement": "Km", "setting": "[1]", "result": 18.5, "unit": "mM"}, {"measurement": "Km", "setting": "[2]", "result": 15.9, "unit": "mM"}]}
